Laboratory results taken from patent publication US20170298051A1, “ACTIVATOR OF ADIPONECTIN RECEPTOR” (THE UNIVERSITY OF TOKYO, priority 2013, published 2017).

Test system: Lepr−/− (db/db) mice
Assay: Anti-diabetic effects in db/db mice
Assay type: in vivo
Conditions: intraperitoneal (IP) injection
Protocol: Mice were 6-10 week of age at the time of the experiment. They were housed in cages and maintained on a 12 hr light-dark cycle.
Male Lepr^−/− (aged 6-10 week) were purchased from Jackson Laboratory. When the mice in the same genotype received different treatments, they were randomly assigned to treatment groups.
Plasma glucose levels were determined by using a glucose B-test (Wako Pure Chemical Industries). Plasma insulin was measured with an insulin immunoassay (Shibayagi). Plasma NEFAs (Wako Pure Chemical Industries) were assayed by enzymatic methods.
The oral glucose tolerance test (OGTT) and insulin tolerance test (ITT) were conducted as previously described^a,b with slight modifications. The areas of the glucose and insulin curves were calculated by multiplying the cumulative mean height of the glucose values (1 mg/ml=1 cm) and insulin values (1 ng/ml=1 cm), respectively, by time (60 min=1 cm)^c,a. The insulin resistance index was calculated from the product of the areas of glucose and insulin×10^−2 in the glucose tolerance test. The results are expressed as the percentage of the value respect to control littermates.

B1: adiponectin: antidiabetic and antiatherogenic adipokine; mouse full-length adiponectin was generated as previously described (protein, UniProt Q60994 1-247, looked up)
chain: MLLLQALLFLLILPSHAEDDVTTTEELAPALVPPPKGTCAGWMAGIPGHPGHNGTPGRDGRDGTPGEKGEKGDAGLLGPKGETGDVGMTGAEGPRGFPGTPGRKGEPGEAAYVYRSAFSVGLETRVTVPNVPIRFTKIFYNQQNHYDGSTGKFYCNIPGLYYFSYHITVYMKDVKVSLFKKDKAVLFTYDQYQEKNVDQASGSVLLHLEVGDQVWLQVYGDGDHNGLYADNVNDSTFTGFLLYHDTN
modifications: full-length
notes: antidiabetic and antiatherogenic adipokine; mouse full-length adiponectin was generated as previously described
plasma glucose level: decreased plasma glucose level
